This note sets out measurements from publication PMC7460627 (International Journal of Molecular Sciences, 2020).

What is called Kd is the free concentration of one partner at which half of the binding sites on the other are occupied at equilibrium, for simple one-to-one binding. High values mean a looser complex, low ones a tighter complex.

In assay [1] the target is lettuce eukaryotic translation initiation factor 4E, eIF4E^0 (susceptible cultivar) (lettuce). Nature of the assay: other fluorescence titration; steady state decrease of eIF4E tryptophan intrinsic fluorescence upon titration by VPg or VPg peptide; 25 °C, 20 mM HEPES pH 7.5, 0.25 mM NaCl, 1 mM DTT.
Assay [2] relates to lettuce eIF4E (all forms). Nature of the assay: Comparison of VPg / m7GTP binding to eIF4E forms (competition, overall affinity). An excerpt: (§1) For optical characteristics of the instrument, see [36].
Another assay addresses T1, lettuce eIF4E (Lactuca sativa, UniProt A0A2J6L8Y7).
T1 construct: to obtain untagged full-length eIF4E and eIF4E∆(1–46); made in house; host or cells: E. coli BL21-AI
In words: Peptide affinity from eIF4E intrinsic fluorescence decay. It counts as binding.
Description: as §1

In a further assay the target is T2, eIF4E (Lactuca sativa, UniProt A0A2J6L8Y7).
T2 construct: to obtain untagged full-length eIF4E and eIF4E∆(1–46); made in house; host or cells: E. coli BL21-AI
Nature of the assay: Stopped-flow kinetics, quenching of eIF4E tryptophan fluorescence. It is filed as binding, lettuce. The procedure: We hypothesized that the 107–120 region could modulate the mechanism of association, the details of which cannot be grasped through equilibrium thermodynamics. Consequently, fast kinetics measurement were performed by stopped flow to compare VPg88–111 and VPg88–120 association with eIF4E (Figure 3).
(A) The quenching of eIF4E tryptophan fluorescence was monitored after mixing 0.3 µM eIF4E with 1 µM VPg88–111 (final concentration). The excitation wavelength was 283 nm. Inset, plots of 1/kobs versus 1/[peptide] at 2.5, 5, 7.5 and 10 µM peptide concentration. VPg88–111 open circles, VPg88–120, open triangles. (B) Stopped-flow traces of VPg88–111*–eIF4E complex formation acquired at 520 nm upon excitation at 480 nm. VPg88–111*: doubly labeled fluorescent derivative of VPg88–111.
The eIF4E tryptophan fluorescence decrease concomitant to association was monitored for several peptide concentrations (Figure S3). A single exponential model fitted satisfactorily with the experimental data allowing the determination of kobs, the apparent constant of the complex formation.
as §1

The target in assay [3] is lettuce eIF4E^2 (resistant cultivar; A70P) (lettuce). Nature of the assay: other fluorescence titration; steady state decrease of eIF4E tryptophan intrinsic fluorescence upon titration by VPg or VPg peptide; 25 °C, 20 mM HEPES pH 7.5, 0.25 mM NaCl, 1 mM DTT.
In assay [4] the target is lettuce eIF4E^1 (resistant cultivar; ∆(108–110)H and A186S) (lettuce). The assay is described as above.
Assay [5] concerns the target lettuce eIF4E N-terminus-deleted form, eIF4E^0 [∆1–46] (lettuce). Described as above.
For assay [6], the target named is lettuce eukaryotic translation initiation factor 4E, eIF4E^0 (susceptible cultivar) (lettuce). Nature of the assay: other fluorescence titration; as a1, but eIF4E 0.5 µM pre-incubated with m7GTP 2 µM prior to titration by VPg; 25 °C.
The target of assay [7] is lettuce eIF4E^2 (resistant cultivar; A70P) (lettuce). The assay is described as above.
The target of assay [8] is lettuce eIF4E^1 (resistant cultivar; ∆(108–110)H and A186S) (lettuce). The description is as above.
Assay [9] addresses lettuce eukaryotic translation initiation factor 4E, eIF4E^0 (susceptible cultivar) (lettuce). In words: stopped-flow fluorescence kinetics; quenching of eIF4E tryptophan fluorescence after mixing 0.3 µM eIF4E with peptide (1 µM; 2.5, 5, 7.5 and 10 µM); excitation 283 nm; single exponential fit, kobs.
Assay [10] has as its target VPg_(88–111)*, doubly labeled fluorescent derivative of VPg_(88–111) (lettuce mosaic virus (LMV strain AF199)). Nature of the assay: other fluorescence titration; steady state titration by eIF4E of 250 nM VPg_(88–111)*, read by the AEDANS to fluorescein resonance energy transfer within the peptide; AEDANS excited at 337 nm; simple bimolecular equilibrium model; 25 °C, 20 mM HEPES pH 7.5, 0.25 mM NaCl, 1 mM DTT.

The target in assay [11] is T3, lettuce eukaryotic translation initiation factor 4E, eIF4E^0 (susceptible cultivar) (lettuce, UniProt A0A2J6L8Y7 1-235).
T3 chain: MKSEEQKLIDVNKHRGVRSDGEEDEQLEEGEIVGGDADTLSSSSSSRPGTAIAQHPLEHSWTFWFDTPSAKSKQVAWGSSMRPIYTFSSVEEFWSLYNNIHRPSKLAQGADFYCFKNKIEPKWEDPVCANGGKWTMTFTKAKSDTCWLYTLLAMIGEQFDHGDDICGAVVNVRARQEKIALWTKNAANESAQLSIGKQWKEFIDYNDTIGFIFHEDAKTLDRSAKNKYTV

Positions count from the first letter of the chain named. Ends that are not written are not given here.

Take VPg_(107–120) synthetic peptide: the Kd in assay [1] was 852 nM. This counts as sub-micromolar.

In the case of `Cn1c[n+]([C@@H]2O[C@H](COP(=O)([O-])OP(=O)(O)OP(=O)(O)O)[C@@H](O)[C@H]2O)c2nc(N)[nH]c(=O)c21` [m7GTP], the “competition between VPg and m7GTP” value in [2] is “compete for their binding to eIF4E”.

Consider VFSDIGLVQDAFGKERLKLLSGGE [VPg88–111], for which the “affinity for eIF4E, in words” value at lettuce eIF4E (VPg88–111 versus VPg88–120) is reported as “comparable affinities”. Besides, on eIF4E (0.3 µM eIF4E, 2.5, 5, 7.5 and 10 µM peptide, single exponential fit), the “dependence of 1/kobs or kobs on peptide concentration” value was “gave a straight line, featuring the pseudo first order nature of the association depending on ligand concentration”. Besides, the “kinetic model of complex formation” value on eIF4E (stopped flow, eIF4E tryptophan quenching) is listed as “one-step process”.

With “LMV VPg from the non-resistance-breaking strain (LMV0) (natural protein)”, the Kd in [3] worked out at 288 nM; in [4], 340 nM; in assay [5] it was 276 nM. Also, the KD with m7GTP in [6] is 746 nM; in assay [7], 703 nM; in [8], 632 nM.

As for VPg_(88–120) synthetic peptide, the k2 (second step of the two-step model, conformational transition of the bound peptide) in assay [9] stood at 33 s⁻¹. For the same molecule, in assay [1], the Kd amounted to 67 nM.

In turn, VPg_(88–111) synthetic peptide showed a Kd in [1] of 72 nM.

In the case of “VFSDIGLVQDAFGKERLKLLSGGEIESEHMRSG [VPg88–120]”, on lettuce eIF4E, binding was put at a Kd of 67 ± 7 nM.

The molecule LSGGEIESEHMRSG [VPg107–120] registered a Kd on lettuce eIF4E of 852 ± 57 nM.

In assay [10], “lettuce eukaryotic translation initiation factor 4E, eIF4E^0 (susceptible cultivar) (from UniProt A0A2J6L8Y7 1-235) (natural protein)” showed a Kd of 63 nM.

B1: LMV VPg from the non-resistance-breaking strain (LMV0) (natural protein)
chain: GKGKRQRQKLRYRQARDNKVGIEVYGDDATMEHYFGAAYTEKGKKSGKTKGMGTKNRRFVNMYGYNPEDFSFIRFLDPLTGKTMDEQVFSDISLVQDAFSKERLKLLSEGEIESEHMRNGIRAYLVKNLTTAALEIDMTPHNSCQLGAKTNNIAGYVDREYELRQTGEARVVAPALIPKDNPITDEDIPVKHE
B1 returned an equilibrium dissociation constant (Kd) in assay [11] of 202 nM. In other words, the sub-micromolar range.

B2: whole VPg from LMV-AF199 strain (natural protein)
chain: B1 chain with R58K, S93G, S100G, E109G, N119S, A148I, Y156F
Turning to B2, the dissociation constant Kd in assay [11] was found to be 82 nM.
